The values that follow come from patent US20220185894A1 (F STAR THERAPEUTICS, published 2022).

Numbering of substitutions follows the chain as printed.

Assay [1] has as its target human PD-L1 expressed on cells (human, UniProt Q9NZQ7 19-290). Nature of the assay: cell-based or functional assay.
For assay [2], the target named is T1, human LAG-3 expressed on cells (human, UniProt P18627 23-525).
T1 construct: also called hLAG-3; DO11.10 hLAG-3
T1 sequence: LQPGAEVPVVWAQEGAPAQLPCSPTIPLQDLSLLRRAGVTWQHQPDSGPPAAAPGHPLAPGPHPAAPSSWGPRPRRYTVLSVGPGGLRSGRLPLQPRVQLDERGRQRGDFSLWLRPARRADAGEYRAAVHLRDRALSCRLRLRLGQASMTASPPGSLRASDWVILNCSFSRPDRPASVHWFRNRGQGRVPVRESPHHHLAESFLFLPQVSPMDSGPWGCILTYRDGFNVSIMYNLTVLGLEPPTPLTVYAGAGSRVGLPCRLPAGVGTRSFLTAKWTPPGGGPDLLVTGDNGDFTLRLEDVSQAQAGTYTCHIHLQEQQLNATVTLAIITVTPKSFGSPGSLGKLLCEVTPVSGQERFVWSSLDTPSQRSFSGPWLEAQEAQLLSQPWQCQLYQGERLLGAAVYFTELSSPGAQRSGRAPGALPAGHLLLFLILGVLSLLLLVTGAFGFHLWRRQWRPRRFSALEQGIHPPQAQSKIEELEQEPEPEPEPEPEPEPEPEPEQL
As to the kind of experiment: flow cytometry on HEK cells expressing human LAG-3. On the procedure:
(§1) The affinity of the mAb² (all containing the LALA mutation) for cell expressed human or cynomolgus LAG-3 was determined using flow cytometry. HEK cells expressing human or cynomolgus LAG-3 grown in DMEM (Life Technologies, 61965-026) containing 10% FBS (Life Technologies, 10270-1-6), 100 μg/ml Hygromycin B (Melford Laboratories Ltd, Z2475), 15 μg/ml Blasticidin (Melford Laboratories Ltd, B1105) and 1 μg/ml Doxycyclin (Sigma, D9891) were detached from tissue culture flasks using cell dissociation buffer (Life Technologies, 13151-014) and seeded in V-bottom 96-well plates (Costar, 3897) at 2×10⁵ cells/well. The plates were centrifuged at 1500 rpm for 3 min at 4° C. to pellet the cells. A dilution series of the mAb² (or control mAb) were incubated with the cells in a 100 μl volume for 1 h at 4° C. The plates were washed and secondary antibody (Anti-human Fc-488, Jackson ImmunoResearch, 109-546-098) was diluted 1:1000 in PBS and 100 μl was added to the cells for 30 min at 4° C. (plates were kept in the dark). The plates were washed and then cells were resuspended in 100 μl PBS containing 1 μg/ml DAPI (Biotium, 40043). The plates were read using Canto II flow cytometer (BD Bioscience). Dead cells were excluded and the fluorescence in the FITC channel (488 nm/530/30) was measured. The data was fit using log (agonist) vs response in GraphPad Prism Software. The plates were read on a BD FACSCanto II cytometer (BD Biosciences) and the data analysed using FlowJo.
On the technique in general: Flow cytometry measures light scatter and fluorescence of single cells or particles in a stream.

Assay [3] has as its target T2, cynomolgus LAG-3 expressed on cells (cynomolgus monkey, UniProt P18627 24-525 (human entry)).
T2 construct: also called cLAG-3; cyno LAG-3
T2 chain: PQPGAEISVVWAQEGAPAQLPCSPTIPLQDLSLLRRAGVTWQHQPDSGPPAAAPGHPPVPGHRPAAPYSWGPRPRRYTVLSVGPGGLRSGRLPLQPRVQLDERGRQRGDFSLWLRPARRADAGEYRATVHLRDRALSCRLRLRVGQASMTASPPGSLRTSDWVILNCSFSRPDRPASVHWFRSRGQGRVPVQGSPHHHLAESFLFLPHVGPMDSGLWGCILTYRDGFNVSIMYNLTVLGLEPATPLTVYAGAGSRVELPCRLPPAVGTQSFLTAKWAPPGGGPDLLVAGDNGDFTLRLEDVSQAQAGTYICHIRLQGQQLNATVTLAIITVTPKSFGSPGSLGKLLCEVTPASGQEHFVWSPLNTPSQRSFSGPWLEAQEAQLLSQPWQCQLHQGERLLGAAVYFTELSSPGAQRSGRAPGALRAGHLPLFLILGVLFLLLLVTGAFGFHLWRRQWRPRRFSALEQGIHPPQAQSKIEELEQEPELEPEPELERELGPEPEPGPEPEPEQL
As to the kind of experiment: flow cytometry on HEK cells expressing cynomolgus LAG-3. The procedure:
as §1

For assay [4], the target named is T3, human PD-L1 Fc (R&D Systems, 156-B7) (human, UniProt Q9NZQ7 19-239).
T3 construct: Bought protein; not shown: Fc tag of the bought fusion protein
Nature of the assay: SPR, BIAcore T200; mAb2 captured on Protein L, PD-L1 Fc injected. The procedure: (§2) Protein L (Thermo, 21189) was immobilized on flow cells 1 and 2 of a Series S CM5 chip (GE Healthcare, BR-1005-30) by amine coupling (GE Healthcare, BR-1000-50) to a surface density of 2000 RU by following the manufacturer's instructions for the BIAcore T200 instrument. […] The association time was 3 min and the dissociation time was 6 min. Running buffer was HBS-P (GE Healthcare, BR-1003-68). Both flow cells were regenerated by injecting 10 mM sodium hydroxide (NaOH) at a flow rate of 100 μl/min for 20 seconds. The data were analysed by double referencing against the blank flow cell.
(§3) The binding kinetics were fit with a 1:1 Langmuir model to generate binding association (kₐ) and dissociation (kd) rates. Equilibrium binding constants (KD) were calculated by dividing the dissociation rate by the association rate for each sample. Data analysis was performed with BiaEvaluation software version 3.2.

The target of assay [5] is T4, recombinant Fc-tagged human LAG-3 (R&D Systems, 2319-L3-050) (human, UniProt P18627 23-450).
T4 construct: Bought protein; also called LAG-3 Fc; human LAG-3-Fc; not shown: Fc tag of the bought fusion protein
T4 sequence: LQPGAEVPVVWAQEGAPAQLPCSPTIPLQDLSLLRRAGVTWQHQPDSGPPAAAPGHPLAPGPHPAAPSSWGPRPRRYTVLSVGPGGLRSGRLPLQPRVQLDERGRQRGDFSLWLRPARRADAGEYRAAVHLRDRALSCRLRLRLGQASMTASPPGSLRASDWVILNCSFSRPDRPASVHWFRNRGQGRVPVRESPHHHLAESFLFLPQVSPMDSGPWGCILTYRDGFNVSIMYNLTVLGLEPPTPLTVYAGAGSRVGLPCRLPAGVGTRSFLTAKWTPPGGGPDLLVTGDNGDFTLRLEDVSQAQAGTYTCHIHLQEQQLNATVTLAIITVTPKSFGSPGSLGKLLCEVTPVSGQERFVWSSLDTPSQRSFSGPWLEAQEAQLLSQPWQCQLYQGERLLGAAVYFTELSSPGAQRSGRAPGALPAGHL
Nature of the assay: SPR, BIAcore T200; mAb2 captured on Protein L, human LAG-3 Fc injected. On the procedure:
as §2, §3

T3 sequence (Q9NZQ7 19-239 limits assumed): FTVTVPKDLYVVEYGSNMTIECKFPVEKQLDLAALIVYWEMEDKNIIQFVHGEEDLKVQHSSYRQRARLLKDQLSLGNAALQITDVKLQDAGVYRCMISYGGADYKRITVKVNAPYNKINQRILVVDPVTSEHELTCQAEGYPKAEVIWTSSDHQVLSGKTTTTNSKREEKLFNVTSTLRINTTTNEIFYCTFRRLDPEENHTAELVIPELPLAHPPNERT
Chain of human PD-L1 expressed on cells (Q9NZQ7 19-290 limits assumed): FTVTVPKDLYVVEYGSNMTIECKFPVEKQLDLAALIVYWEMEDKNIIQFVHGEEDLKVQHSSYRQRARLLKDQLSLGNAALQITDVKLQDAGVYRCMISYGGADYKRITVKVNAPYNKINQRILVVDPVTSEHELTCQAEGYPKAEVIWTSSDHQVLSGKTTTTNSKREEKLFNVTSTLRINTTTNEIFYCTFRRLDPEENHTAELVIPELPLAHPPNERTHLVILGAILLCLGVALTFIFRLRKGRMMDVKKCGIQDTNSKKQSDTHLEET

B1: anti-human LAG-3/PD-L1 mAb2 FS18-7-62/84G09 with LALA mutation (bispecific antibody, human IgG1, kappa, L234A L235A)
heavy: EVQLVESGGGLVQPGRSLRLSCAASGFTFDDYAMHWVRQTPGKGLEWVSGISWKSNIIGYADSVKGRFTISRDNAKNSLYLQMNSLRAEDTALYYCARDITGSGSYGWFDPWGQGTLVTVSSASTKGPSVFPLAPSSKSTSGGTAALGCLVKDYFPEPVTVSWNSGALTSGVHTFPAVLQSSGLYSLSSVVTVPSSSLGTQTYICNVNHKPSNTKVDKKVEPKSCDKTHTCPPCPAPEAAGGPSVFLFPPKPKDTLMISRTPEVTCVVVDVSHEDPEVKFNWYVDGVEVHNAKTKPREEQYNSTYRVVSVLTVLHQDWLNGKEYKCKVSNKALPAPIEKTISKAKGQPREPQVYTLPPSWDEPWGEDVSLTCLVKGFYPSDIAVEWESNGIPEWNYKTTPPVLDSDGSFFLYSKLTVPYDRWVWPDEFSCSVMHEALHNHYTQKSLSLSPG
light: DIQMTQSPSSLSASVGDRVTITCRASQSISSYLNWYQQKPGKAPKPLIYVASSLQSGVPSSFSGSGSGTDFTLTISSLQPEDFATYYCQQSYSNPITFGQGTRLEIKRTVAAPSVFIFPPSDEQLKSGTASVVCLLNNFYPREAKVQWKVDNALQSGNSQESVTEQDSKDSTYSLSSTLTLSKADYEKHKVYACEVTHQGLSSPVTKSFNRGEC
notes: also called FS18-7-62/84G09LALA; F518-7-62/84G09LALA
A word on the EC50: it is the concentration at which the effect is half-maximal. The low end stands for an effect from little substance, the high end for a need for much substance. For orientation: Kd means the equilibrium constant for the complex coming apart. Broadly, the koff is the first-order rate constant of dissociation. Broadly, the kon is a measure of how fast the partners come together. For B1, in assay [1], the “Maximal IL2 release calculated as % ctrl (84G09 + 25F7)” value was 59%. In addition, the EC50 in assay [2] was 4.08 nM. Moreover, in assay [3], the EC50 worked out at 26.4 nM and the “fold better binding (EC50) than control antibody 25F7” value was ≥ 2 fold. Besides, in assay [4], the Kd worked out at 1.3 nM, the koff amounted to 0.00022 s⁻¹ and the kon came to 170000 M⁻¹ s⁻¹. In assay [5], the Kd amounted to 0.036 nM, the koff came to 0.0002 s⁻¹ and the kon turned out to be 5.4e+06 M⁻¹ s⁻¹.

B2: anti-human LAG-3/PD-L1 mAb2 FS18-7-78/84G09 with LALA mutation (bispecific antibody, human IgG1, kappa, L234A L235A)
heavy: B1 heavy with I391Y, P392K, W394E
light: B1 light
notes: also called FS18-7-78/84G09 LALA; FS18-7-78/84G09LALA
For B2, the “Maximal IL2 release calculated as % ctrl (84G09 + 25F7)” value in assay [1] is 64.4%. For the same molecule, the EC50 in assay [2] amounted to 2.53 nM. Also, in assay [3], the midpoint of the response, the EC50, lay at 24.8 nM and the “fold better binding (EC50) than control antibody 25F7” value is ≥ 2 fold. In assay [4], binding was characterised by a dissociation constant (Kd) of 1 nM, the koff came out at 0.0001 s⁻¹ and the kon stood at 100000 M⁻¹ s⁻¹. In assay [5], the Kd worked out at 0.029 nM, the koff came to 0.00014 s⁻¹ and the kon amounted to 4.8e+06 M⁻¹ s⁻¹.
